Source: publication PMC8396234

Target: GHSR1a-RLuc (ghrelin GHSR1a receptor fused to Renilla luciferase) (human) (UniProt Q92847)
Settings: scale: % decrease of forskolin-induced cAMP levels

UniProt Q92847, sequence (Q92847 whole entry, the tested form may be a part): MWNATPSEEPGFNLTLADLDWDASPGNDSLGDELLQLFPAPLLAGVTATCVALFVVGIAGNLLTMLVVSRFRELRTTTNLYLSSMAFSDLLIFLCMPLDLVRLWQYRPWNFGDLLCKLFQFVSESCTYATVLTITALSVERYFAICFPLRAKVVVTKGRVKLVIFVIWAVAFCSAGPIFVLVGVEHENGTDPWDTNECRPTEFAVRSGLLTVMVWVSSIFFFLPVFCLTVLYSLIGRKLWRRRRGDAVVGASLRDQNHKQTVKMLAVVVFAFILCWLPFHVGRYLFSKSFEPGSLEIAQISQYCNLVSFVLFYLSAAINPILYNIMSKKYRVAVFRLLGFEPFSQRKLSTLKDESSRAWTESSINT

Ghrelin (peptide)
forskolin-induced cAMP levels in HEK-293T cells expressing GHSR1a alone, 200 nM ghrelin: 25
